# Reference: the supplement of paper PMC9170038
# System: K4 kissing-loop RNA reporter
# Assay: apparent KD of K4 kissing-loop reporter; higher = weaker reporter binding
# Conditions: Eterna round: R107
# Method: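 RNA-MaP round R107: designed RNA switches with theophylline, tryptophan, arginine or FMN aptamers are transcribed on-chip within common flanks. They are titrated with a labelled K4 kissing-loop RNA reporter in RNA-MaP buffer (100 mM Tris pH 7.5, 80 mM KCl, 4 mM MgCl2), without ligand or with the indicated ligand. Median apparent KD per design.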
# [1] = input ligand: theophylline 20 uM
# [2] = input ligand: tryptophan 2.4 mM
# 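Note: bound reporter read as fluorescence of individual clusters on recovered sequencing chips by microscopy, with normalized cluster intensities fitted with a binding model.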
Sequence,apparent KD of K4 kissing-loop reporter (input ligand: FMN 200 uM) [nM],apparent KD of K4 kissing-loop reporter (input ligand: arginine 13.2 mM) [nM],apparent KD of K4 kissing-loop reporter (input ligand: none) [nM],apparent KD of K4 kissing-loop reporter [1] [nM],apparent KD of K4 kissing-loop reporter [2] [nM]
GAUUCAGUGAUGUUGGAAGGCGAGCGGGAUACCAGCCAAGACUCAGGCCCUUGGCAGCCCACAUAUCCCAGGUAGAUAGUAGCUC [Same State - Theophylline A (Freestyle 12)],168,111,142,146,132
AUUUUGGUUUAGAGUGAUGUUCCUUGUAUUCGAGGACCGGUACGGCCGCCACUCGGAUAGAAAAGAAAAGAAAUGUUUGAUUUUU [BDazzled - #8 SS Tryptophan A],339,219,458,260,298
GGAAAUUGAUCAACGCAGUGAUGUUGCGAUACCAGACACAAAGCCGUCCCUUGGCAGCGCGGGACAUUAAUGGAUCUAUGGGUUC [theeternabot_exclusion_KL_Theo_A_26],68.5,113,68.2,119,66.8
AAGUAGUCCCUUGUUGUCAUCGAAGAUGAACGAGGACCGGUACGGCCGCCACUCGGAGUGAUGUUCCGAUGGCUGCAAAAUAAAA [MatMod 22 - Jieux - Exclusion - Tryptophan A],103,88.9,92,91.4,101
UGCAGUGAUGUUGCUAUUUUUCUUGAUUAACGAGGACCGGUACGGCCGCCACUCGAUUUCUCUCUAGUCCAGUAUGUUGUUUGAU [whbob_EX_Tryp_A_t5],96.2,124,99.8,125,82.9
UCGUCUGUGUGAGGAUAUCCAAGCGAGCUGCGUACAGGUGCGGCGUUUGGAGUGAUGUUCCAGGCAGGAGAAGGCGCACGGGCUU [Esored],191,247,284,285,251
CACUUACGUAGUGAUGUUACGAUCUCUGAUACCAGACAACUCUAAGUCCCUUGGCAGCAGUCAUUUUGCUUUUAAUUUACUCAAA [JR_ExcTheophyA_Sub014],552,572,682,578,425
UAGGGCAUCGCAGGAUAUCCUGCUUAACGUUGGAUUCCAGUGAUGUUGGAAAGCCGGCCUAGGGUAGGAGAAGGGCGGACUUGAA [Riteteve],160,167,167,187,242
UGUACCGAGUCAGGAUAUGGCGUCGAAAGACGAAUCGUAGUGAUGUUACGGAUCUGCGAAAGCAGUCCAGAAGGGACUUGGUACU [FmnBS 26 G37+C49],125,172,163,155,182
UGUAUGGACUGAAGGAGCGGUAGAUAAACUGAGUGAUGUUCGGCAAAUAAAGGCGCAAGCCACCAGGUAGGUCGCAGUCCAUACU [KL-SSArg B1],289,182,235,236,205
AGGAUGUAGUGAUGUUAUAUAAAAGGUAAACGAGGACCGGUACGGCCGCCACUCGAAGCGGCUGCUAAGAGGGAAAGAAGAGGAA [ExTryptoA.E],496,464,570,684,371
GAACGAGUGAUGUUCGUUGGCAUGCAUUCCGAGGAUAUGGGAUUAGCCAGAAGGCGGAAUCAGUCUUCGAGUGAUGUUCGAAGAU [Same State FMN A GF 12],112,104,116,104,111
UGGCGAGUGAUGUUCGUUGUUGUAGUGUGCCGAGGACCGGUACGGCCGCCACUCGGGUUGGUUGUUGUUGUUGUUGUUGUUGUUG [whbob_SS_tryp_A],127,110,112,119,76.1
CGUUCUUCUGUCGAUACCAGCUUCAGUUGGCGGCCAGUGAUGUUGGUAUCGCCGAUGCCAAGCCCUUGGCAGCGACAUGAGACCC [Onrire],171,180,182,130,168
AGUGAAGUUAGUGAUGUGUGAGUUUGGGAAGGAGCGCCGAGGAAGGCAGGUAGGUCGCCCAGUGAUGUUGGUGUAAGGAUGAGAG [whbob_Ex_Arginine_A_2t123],451,332,311,262,303
GGUAGCAUGGCGGCCGCCACUCUUCAUUAGUGAUGUUAAUGCCGAGUGCGCUAACUCCAACUGGAGAGGACCGGGCCAUGCUACC,182,122,288,440,76

Sequence,apparent KD of K4 kissing-loop reporter (input ligand: FMN 200 uM) [nM],apparent KD of K4 kissing-loop reporter (input ligand: arginine 13.2 mM) [nM],apparent KD of K4 kissing-loop reporter (input ligand: none) [nM],apparent KD of K4 kissing-loop reporter [1] [nM],apparent KD of K4 kissing-loop reporter [2] [nM]
AGGUCCGAGCCCGGAAGGGCUCGGACCUGUUAGGAUAUGACGUGAUUCAGAAGGGAUGGGUGGAGUGAUGUUCCACCCGAGAGGG [#2 Same State - FMN A Attempt #20 (HarryS)],105,89.3,91.2,102,109
AAGUGAUGUUGUAGUGAUGUUGUGAUGUUGCAGGAUAUAUAGUGAUGUAGAAGGGUAUGUGCAGUGUUGUUGUUUGAGUGUUGAU [twwumullin],90.3,43.2,74.7,68.6,68.7
AAUAACUUGCAGUGAUGUUGCAAGAAAGCUCAGGAUAUCAGGAAACUGAGAAGGGAGCAUCCUGAGCAAACAUCACAACUUAGGA [[K1]-[K2]-[F1]-[F2]-[F]'-[K]'-[F]''_Design2],368,295,406,448,361
UGAUAGGACAGAAGGAGCGGGAGUGAUGUUCCCAAUAAAAGGUCUAGCAAAGCUAGACCCUCCCAGGUAGGUCGCUGUCCUAUCU [ArgBX 2 #Palindromic #SwitchBubble #StaticStem],234,265,268,245,219
UGGACCUGACUCGAUAAGAGUCAAUGAGAUACCAGCCACGAAAGUGGCCCUUGGCAGCUCUGCCAGUGAUGUUGGUCAAGGUCCU [#SwitchBubble 5 #StaticStem],1280,889,1550,584,1100
AGAACUGUCUGAGAUACCAGCUAAGGAGUGAUGUUCCGGCUCGACGAAACGUCGAGCCAUAGCCCUUGGCAGCUCAGACAGUUCA [#27 K4 Theophylline B Same State],431,183,378,873,244
AAGAAGAAUGGAAGGAGCGAGCAGAUAUAACCAGUGAUGUUGGAAAGCCUUAUUGCUUAAGCUCAGGUAGGUCGCCAAGAAAAGA [whbob_Ex_Arginine_B_2t151],162,153,172,193,212
GCGCGUCAUGUCAGCGGUGACACUGUCGAUACCAGCGCCGGAAGGCGCCCUUGGCAGCGACGUGCUGGAGUGAUGUUCCAGCGUG [#2 Exclusion - Theophylline A Attempt #26 (HarryS)],197,158,178,206,157
AGACUACUGAUAGGAUAUAACAUCCUAGUCGUAUACCGAAAGGUAUACGAUUUCCUUCUAGUGAUGUUAGAAGGGUCGGUAGUCA [Omei KL FMN B Exc B v11],106,82.4,89.1,81.1,89.1
CCUCACGUAGGACUAGUGAUGUUAGACUACCGAGGACCGGUACGGCCGCCACUCGUCGUACAAGAUAACCUUCCGCCAGUAUACA,113,91.8,99.9,83.6,108
AUGCUUCAGUAAGGAUAUGGAGGCAGAGUGAAGAUUGUCGUGUAACCGAGUUAAGUGAUGUUUGAUCCAGAAGGUACAUGCGUGU [theeternabot_exclusion_KL_FMN_B_15],926,561,885,379,605
GCUAUGGUAGGAAGGAGCGCUUACUCGGUAAUAAGAGUGAUGUUCGAUACCGAGUAUUUAUAGCAGGUAGGUCGCCUACUAUAGC [Arginine B K4 5],238,209,195,253,227
CUCCAACUUGAUGAUACCAGAGAGGAGGAAGUGAUGUUGACUCCGGCUACAUACUGGCGACUCCCUUGGCAGCAUUACGUCAUCC [theeternabot_sameState_KL_Theo_B_3],389,265,318,417,353
AUCCGGAGUGCGGCCGCCACUAUCGGAUAGAGUGAUGUUCUAUCCGGCCUUAAAGGCGCGAACGAUAGGACCGGGCACUCUAAAU [Quatinti],121,124,136,128,122
ACGUAGUACGUAGGAUAUCAGAGAUCAGUUAGUGAGAUCGAGUGAUGUUCGAUCAUGUGUUCAUUUUGAGAAGGAUGUAGUAGGA [KL-SSFMN-B6],302,302,366,358,228
AAUAUAAAGUCGGCCGCCACUGGAUUUAUAUUUGUUAAAUCUGGAUCAAAGUGAUGUUUUGAGUCCAGGACCGGGACAAUUGUUA [JR_ExcTryptoB_Sub001],123,117,120,122,203
